Source: the supplement of paper PMC11246515
± gives the standard deviation of the averaged measurements.

Experiment: total protein half-life in vivo (active degradation + dilution); higher = more stable protein
[1] = E. coli NCM3722 delta-clpP delta-lon delta-hslV, growth: N-lim chemostat, doubling time 6 h
[2] = E. coli NCM3722 delta-clpP, growth: N-lim chemostat, doubling time 6 h
[3] = E. coli NCM3722 delta-hslV, growth: N-lim chemostat, doubling time 6 h
[4] = E. coli NCM3722 delta-lon, growth: N-lim chemostat, doubling time 6 h
[5] = E. coli NCM3722 delta-smpB, growth: N-lim chemostat, doubling time 6 h
[6] = wild type E. coli NCM3722, growth: C-lim chemostat, doubling time 3 h
[7] = wild type E. coli NCM3722, growth: C-lim chemostat, doubling time 6 h
[8] = wild type E. coli NCM3722, growth: C-lim chemostat, doubling time 12 h
[9] = wild type E. coli NCM3722, growth: N-lim chemostat, doubling time 6 h
[10] = wild type E. coli NCM3722, growth: N-lim chemostat, doubling time 12 h
[11] = wild type E. coli NCM3722, growth: P-lim chemostat, doubling time 6 h
[12] = wild type E. coli NCM3722, growth: P-lim chemostat, doubling time 12 h

In the case of “MANADLDKQPDSVSSVLKVFGILQALGEEREIGITELSQRVMMSKSTVYRFLQTMKTLGYVAQEGESEKYSLTLKLFELGARALQNVDLIRSADIQMRELSRLTKETIHLGALDEDSIVYIHKIDSMYNLRMYSRIGRRNPLYSTAIGKVLLAWRDRDEVKQILEGVEYKRSTERTITSTEALLPVLDQVREQGYGEDNEEQEEGLRCIAVPVFDRFGVVIAGLSISFPTLRFSEERLQEYVAMLHTAARKISAQMGYHDYPF”, the “total protein half-life in vivo” value [1] is reported as 6.07 ± 1.7 h, the “total protein half-life in vivo” value [2] is reported as 6.18 ± 1.6 h and the “total protein half-life in vivo” value [3] is reported as 4.82 ± 0.33 h. The “total protein half-life in vivo” value [4] was 5.09 ± 0.25 h, the “total protein half-life in vivo” value [5] was 5.01 ± 0.17 h and the “total protein half-life in vivo” value [6] was 3.01 ± 0.13 h. For the same sequence, the “total protein half-life in vivo” value [7] was 5.91 ± 0.28 h, the “total protein half-life in vivo” value [8] was 10.2 ± 0.83 h and the “total protein half-life in vivo” value [9] was 5.255 ± 0.017 h. For the same sequence, the “total protein half-life in vivo” value [10] was 8.11 ± 0.13 h, the “total protein half-life in vivo” value [11] was 5.82 ± 0.61 h and the “total protein half-life in vivo” value [12] was 11.1 ± 0.7 h.

In the case of “MANELTWHDVLAEEKQQPYFLNTLQTVASERQSGVTIYPPQKDVFNAFRFTELGDVKVVILGQDPYHGPGQAHGLAFSVRPGIAIPPSLLNMYKELENTIPGFTRPNHGYLESWARQGVLLLNTVLTVRAGQAHSHASLGWETFTDKVISLINQHREGVVFLLWGSHAQKKGAIIDKQRHHVLKAPHPSPLSAHRGFFGCNHFVLANQWLEQRGETPIDWMPVLPAESE”, the “total protein half-life in vivo” value [2] is reported as 5.184 ± 0.029 h, the “total protein half-life in vivo” value [3] is reported as 5.26 ± 0.17 h and the “total protein half-life in vivo” value [4] is reported as 5.24 ± 0.29 h. For the same sequence, the “total protein half-life in vivo” value [5] was 5.6 ± 0.28 h, the “total protein half-life in vivo” value [6] was 3.1 ± 0.099 h and the “total protein half-life in vivo” value [7] was 5.17 ± 0.19 h. The “total protein half-life in vivo” value [8] was 11.2 ± 2.4 h, the “total protein half-life in vivo” value [9] was 4.89 ± 0.42 h and the “total protein half-life in vivo” value [10] was 10.6 ± 0.65 h. For the same sequence, the “total protein half-life in vivo” value [11] was 5.97 ± 0.092 h.

With “MANFFIRRPIFAWVLAIILMMAGALAILQLPVAQYPTIAPPAVSVSANYPGADAQTVQDTVTQVIEQNMNGIDNLMYMSSTSDSAGSVTITLTFQSGTDPDIAQVQVQNKLQLATPLLPQEVQQQGISVEKSSSSYLMVAGFVSDNPGTTQDDISDYVASNVKDTLSRLNGVGDVQLFGAQYAMRIWLDADLLNKYKLTPVDVINQLKVQNDQIAAGQLGGTPALPGQQLNASIIAQTRFKNPEEFGKVTLRVNSDGSVVRLKDVARVELGGENYNVIARINGKPAAGLGIKLATGANALDTAKAIKAKLAELQPFFPQGMKVLYPYDTTPFVQLSIHEVVKTLFEAIMLVFLVMYLFLQNMRATLIPTIAVPVVLLGTFAILAAFGYSINTLTMFGMVLAIGLLVDDAIVVVENVERVMMEDKLPPKEATEKSMSQIQGALVGIAMVLSAVFIPMAFFGGSTGAIYRQFSITIVSAMALSVLVALILTPALCATLLKPVSAEHHENKGGFFGWFNTTFDHSVNHYTNSVGKILGSTGRYLLIYALIVAGMVVLFLRLPSSFLPEEDQGVFLTMIQLPAGATQERTQKVLDQVTDYYLKNEKANVESVFTVNGFSFSGQAQNAGMAFVSLKPWEERNGDENSAEAVIHRAKMELGKIRDGFVIPFNMPAIVELGTATGFDFELIDQAGLGHDALTQARNQLLGMAAQHPASLVSVRPNGLEDTAQFKLEVDQEKAQALGVSLSDINQTISTALGGTYVNDFIDRGRVKKLYVQADAKFRMLPEDVDKLYVRSANGEMVPFSAFTTSHWVYGSPRLERYNGLPSMEIQGEAAPGTSSGDAMALMENLASKLPAGIGYDWTGMSYQERLSGNQAPALVAISFVVVFLCLAALYESWSIPVSVMLVVPLGIVGVLLAATLFNQKNDVYFMVGLLTTIGLSAKNAILIVEFAKDLMEKEGKGVVEATLMAVRMRLRPILMTSLAFILGVLPLAISNGAGSGAQNAVGIGVMGGMVSATLLAIFFVPVFFVVIRRCFKG” the “total protein half-life in vivo” value [3] was 5.63 h and the “total protein half-life in vivo” value [10] was 8.2 h.

In the case of “MANIEIRQETPTAFYIKVHDTDNVAIIVNDNGLKAGTRFPDGLELIEHIPQGHKVALLDIPANGEIIRYGEVIGYAVRAIPRGSWIDESMVVLPEAPPLHTLPLATKVPEPLPPLEGYTFEGYRNADGSVGTKNLLGITTSVHCVAGVVDYVVKIIERDLLPKYPNVDGVVGLNHLYGCGVAINAPAAVVPIRTIHNISLNPNFGGEVMVIGLGCEKLQPERLLTGTDDVQAIPVESASIVSLQDEKHVGFQSMVEDILQIAERHLQKLNQRQRETCPASELVVGMQCGGSDAFSGVTANPAVGYASDLLVRCGATVMFSEVTEVRDAIHLLTPRAVNEEVGKRLLEEMEWYDNYLNMGKTDRSANPSPGNKKGGLANVVEKALGSIAKSGKSAIVEVLSPGQRPTKRGLIYAATPASDFVCGTQQVASGITVQVFTTGRGTPYGLMAVPVIKMATRTELANRWFDLMDINAGTIATGEETIEEVGWKLFHFILDVASGKKKTFSDQWGLHNQLAVFNPAPVT”, the “total protein half-life in vivo” value [1] is reported as 4.25 ± 0.3 h, the “total protein half-life in vivo” value [2] is reported as 2.43 h and the “total protein half-life in vivo” value [6] is reported as 2.1 ± 0.18 h. The “total protein half-life in vivo” value [7] was 3.22 ± 0.48 h, the “total protein half-life in vivo” value [8] was 3.39 ± 0.27 h and the “total protein half-life in vivo” value [12] was 3.6 h.

In the case of “MANKPSAEELKKNLSEMQFYVTQNHGTEPPFTGRLLHNKRDGVYHCLICDAPLFHSQTKYDSGCGWPSFYEPVSEESIRYIKDLSHGMQRIEIRCGNCDAHLGHVFPDGPQPTGERYCVNSASLRFTDGENGEEING [P0A746]”, the “total protein half-life in vivo” value [2] is reported as 3.48 ± 0.34 h, the “total protein half-life in vivo” value [3] is reported as 3.1 ± 0.16 h and the “total protein half-life in vivo” value [4] is reported as 3.91 ± 0.56 h. For the same sequence, the “total protein half-life in vivo” value [5] was 2.55 ± 0.31 h, the “total protein half-life in vivo” value [6] was 1.95 ± 0.59 h and the “total protein half-life in vivo” value [7] was 4.02 ± 0.54 h. For the same sequence, the “total protein half-life in vivo” value [8] was 5.47 ± 0.75 h, the “total protein half-life in vivo” value [9] was 3.22 ± 0.13 h and the “total protein half-life in vivo” value [10] was 4.64 ± 0.16 h. The “total protein half-life in vivo” value [11] was 2.79 ± 0.38 h and the “total protein half-life in vivo” value [12] was 6.29 ± 0.15 h.

With “MANPLYQKHIISINDLSRDDLNLVLATAAKLKANPQPELLKHKVIASCFFEASTRTRLSFETSMHRLGASVVGFSDSANTSLGKKGETLADTISVISTYVDAIVMRHPQEGAARLATEFSGNVPVLNAGDGSNQHPTQTLLDLFTIQETQGRLDNLHVAMVGDLKYGRTVHSLTQALAKFDGNRFYFIAPDALAMPQYILDMLDEKGIAWSLHSSIEEVMAEVDILYMTRVQKERLDPSEYANVKAQFVLRASDLHNAKANMKVLHPLPRVDEIATDVDKTPHAWYFQQAGNGIFARQALLALVLNRDLVL [P0A786]” the “total protein half-life in vivo” value [1] was 6.1 ± 1.2 h, the “total protein half-life in vivo” value [2] was 4.74 ± 0.28 h and the “total protein half-life in vivo” value [3] was 4.54 ± 0.5 h. The “total protein half-life in vivo” value [4] was 4.9 ± 0.09 h, the “total protein half-life in vivo” value [5] was 5.02 ± 0.63 h and the “total protein half-life in vivo” value [6] was 3.22 ± 0.23 h. For the same sequence, the “total protein half-life in vivo” value [7] was 5.83 ± 0.35 h, the “total protein half-life in vivo” value [8] was 10.4 ± 1.8 h and the “total protein half-life in vivo” value [9] was 4.75 ± 0.085 h. For the same sequence, the “total protein half-life in vivo” value [10] was 8.23 ± 1.4 h, the “total protein half-life in vivo” value [11] was 5.94 ± 0.21 h and the “total protein half-life in vivo” value [12] was 10.7 ± 0.62 h.

In the case of “MANSITADEIREQFSQAMSAMYQQEVPQYGTLLELVADVNLAVLENNPQLHEKMVNADELARLNVERHGAIRVGTAQELATLRRMFAIMGMYPVSYYDLSQAGVPVHSTAFRPIDDASLARNPFRVFTSLLRLELIENEILRQKAAEILRQRDIFTPRCRQLLEEYEQQGGFNETQAQEFVQEALETFRWHQSATVDEETYRALHNEHRLIADVVCFPGCHINHLTPRTLDIDRVQSMMPECGIEPKILIEGPPRREVPILLRQTSFKALEETVLFAGQKQGTHTARFGEIEQRGVALTPKGRQLYDDLLRNAGTGQDNLTHQMHLQETFRTFPDSEFLMRQQGLAWFRYRLTPSGEAHRQAIHPGDDPQPLIERGWVVAQPITYEDFLPVSAAGIFQSNLGNETQTRSHGNASREAFEQALGCPVLDEFQLYQEAEERSKRRCGLL”, the “total protein half-life in vivo” value [1] is reported as 4.93 ± 0.48 h, the “total protein half-life in vivo” value [2] is reported as 4.86 ± 2.3 h and the “total protein half-life in vivo” value [3] is reported as 3.34 h. The “total protein half-life in vivo” value [4] was 3.29 ± 0.28 h, the “total protein half-life in vivo” value [5] was 3.09 ± 0.13 h and the “total protein half-life in vivo” value [6] was 1.93 ± 0.29 h. The “total protein half-life in vivo” value [7] was 3.5 ± 0.098 h, the “total protein half-life in vivo” value [8] was 5.086 ± 0.02 h and the “total protein half-life in vivo” value [9] was 3.41 ± 0.23 h. For the same sequence, the “total protein half-life in vivo” value [10] was 4.83 ± 0.42 h, the “total protein half-life in vivo” value [11] was 3.15 ± 0.84 h and the “total protein half-life in vivo” value [12] was 6.32 ± 0.42 h.
